This note sets out measurements from patent publication US12612465B2, “Formulations comprising PCSK9 specific monoclonal antibodies” (Amgen Inc., priority 2012, dated 2026).

As a reminder, the Kd is the concentration at which binding is half-saturated. Low values mean a tighter complex, high ones a looser complex.

The target of one experiment is human D374Y PCSK9 (Homo sapiens, UniProt Q8NBP7, D374Y/E620G/G670E/V474I). Kind of experiment: Receptor ligand blocking screen / functional screening of hybridoma antibodies. In kind it is binding. The protocol: To screen for the antibodies that block PCSK9 binding to LDLR an assay was developed using the D374Y PCSK9 mutant. […] The following protocol was employed in the receptor ligand blocking screen: Costar 3702 medium binding 384 well plates (Corning Life Sciences) were employed in the screen. The plates were coated with goat anti-LDLR (R&D Cat # AF2148) at 2 μg/ml in 1×PBS/0.05% Azide at a volume of 40 μl/well. The plates were incubated at 4° C. overnight. The plates were then washed using a Titertek plate washer (Titertek, Huntsville, Ala.). A 3-cycle wash was performed. The plates were blocked with 90 μl of 1×PBS/1% milk and incubated approximately 30 minutes at room temperature. The plates were then washed using the Titertek plate washer. A 3-cycle wash was performed. The capture sample was LDLR (R&D, Cat #2148LD/CF), and was added at 0.4 μg/ml in 1×PBS/1% milk/10 mM Ca^2+ at a volume of 40 μl/well. The plates were then incubated for 1 hour and 10 minutes at room temperature. Contemporaneously, 20 ng/ml of biotinylated human D374Y PCSK9 was incubated with 15 micro liters of hybridoma exhaust supernatant in Nunc polypropylene plates and the exhaust supernatant concentration was diluted 1:5. The plates were then pre-incubated for about 1 hour and 30 minutes at room temperature. Next, the plates were washed using the Titertek plate washer operated using a 3-cycle wash. 50 μl/well of the pre-incubated mixture was transferred onto the LDLR coated ELISA plates and incubated for 1 hour at room temperature. To detect LDLR-bound b-PCSK9, 40 μl/well streptavidin HRP at 500 ng/ml in assay diluent was added to the plates. The plates were incubated for 1 hour at room temperature. The plates were again washed using a Titertek plate washer. A 3-cycle wash was performed. Finally, 40 μl/well of One-step TMB (Neogen, Lexington, Ky.) was added to the plate and was quenched with 40 μl/well of 1N hydrochloric acid after 30 minutes at room temperature. OD's were read immediately at 450 nm using a Titertek plate reader.
The receptor ligand assay was then repeated using the mutant enzyme on the 384 member subset of neutralizers identified in the first large scale receptor ligand inhibition assay. The same protocol was employed in the screen of the 384 member blocker subset assay as was done in the large scale receptor ligand blocking screen.
Limiting dilution was used to isolate a manageable number of clones from each line. […] The isolated clones were each expanded in 50-100 ml of hybridoma media and allowed to grow to exhaustion, (i.e., less than about 10% cell viability). The concentration and potency of the antibodies to PCSK9 in the supernatants of those cultures were determined by ELISA and by in vitro functional testing, as described herein.

The target of experiment [1] is T1, human PCSK9 (Homo sapiens, UniProt Q8NBP7, E620G/G670E/V474I).
T1 construct: made in house
Kind of experiment: BIAcore affinity analysis. In kind it is binding. The protocol: Briefly, the surface plasmon resonance experiments were performed using Biacore 2000 optical biosensors (Biacore, GE Healthcare, Piscataway, N.J.). […] The concentration of PCSK9 protein was varied at 2 fold intervals (the analyte) and was injected over the immobilized antibody surface (at a flow rate of 100 μl/min for 1.5 minutes). […]
The binding signal obtained was proportional to the free PCSK9 in solution.
Antibody binding kinetic parameters including ka (association rate constant), […] (dissociation rate constant), and KD (dissociation equilibrium constant) were determined using the BIA evaluation 3.1 computer program (BIAcore, Inc. Piscataway, N.J.).
A general note: SPR reads the build-up and loss of mass on a sensor chip optically.

Experiment [2] concerns the target T1, human PCSK9. Kind of experiment: KinExA affinity analysis. The experiment is classed as binding. Conditions: hPCSK9, KinExA. The source says: Briefly, Reacti-Gel™ (6×) (Pierce) was pre-coated with one of human, V5-tagged cyno or His-tagged mouse PCSK9 proteins and blocked with BSA. […] Equilibrium dissociation constant (KD) were obtained from nonlinear regression of the two sets of competition curves using a one-site homogeneous binding model. The KinExA® Pro software was employed in the analysis.
In general terms: In KinExA the mixture passes briefly over coated beads that capture the unbound partner.

In a further experiment the target is T2, PCSK9 protein (Mus musculus, UniProt Q80W65).
T2 construct: endogenous in cells; host or cells: WT C57BL/6 mice, in vivo
Kind of experiment: Serum cholesterol and HDL in WT mice, 13 day study. The settings on record: 10 mg/kg, repeated 13 day study. In kind it is in vivo. The text has this:
Male WT mice (C57BL/6 strain, aged 9-10 weeks, 17-27 g) obtained from Jackson Laboratory (Bar Harbor, Me.) were fed a normal chow (Harland-Teklad, Diet 2918) through out the duration of the experiment. […] Naïve mice were also set aside as naïve control group.
Animals were sacrificed and livers were extracted and prepared as in Example 13.

Chain of human D374Y PCSK9 (Q8NBP7 153-692 D374Y/V474I/E620G/G670E): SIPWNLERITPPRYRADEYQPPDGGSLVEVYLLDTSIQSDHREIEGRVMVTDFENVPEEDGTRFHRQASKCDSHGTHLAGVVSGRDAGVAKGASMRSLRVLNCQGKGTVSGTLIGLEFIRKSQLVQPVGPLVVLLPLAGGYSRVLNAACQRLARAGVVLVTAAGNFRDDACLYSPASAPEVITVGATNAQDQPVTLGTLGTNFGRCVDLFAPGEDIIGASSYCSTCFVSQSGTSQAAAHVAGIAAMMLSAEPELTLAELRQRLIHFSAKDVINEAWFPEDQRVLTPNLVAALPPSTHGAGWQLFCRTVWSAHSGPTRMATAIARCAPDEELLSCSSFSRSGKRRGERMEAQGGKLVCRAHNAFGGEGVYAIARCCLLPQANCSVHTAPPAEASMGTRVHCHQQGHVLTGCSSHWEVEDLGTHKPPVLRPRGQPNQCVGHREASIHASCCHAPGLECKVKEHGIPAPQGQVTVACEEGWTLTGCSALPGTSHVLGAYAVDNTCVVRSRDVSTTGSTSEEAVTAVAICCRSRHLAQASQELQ
T1 sequence (Q8NBP7 153-692 V474I/E620G/G670E): as the sequence (Q8NBP7 153-692 D374Y/V474I/E620G/G670E) above, with Y222D counted along it
T2 sequence (Q80W65 156-694): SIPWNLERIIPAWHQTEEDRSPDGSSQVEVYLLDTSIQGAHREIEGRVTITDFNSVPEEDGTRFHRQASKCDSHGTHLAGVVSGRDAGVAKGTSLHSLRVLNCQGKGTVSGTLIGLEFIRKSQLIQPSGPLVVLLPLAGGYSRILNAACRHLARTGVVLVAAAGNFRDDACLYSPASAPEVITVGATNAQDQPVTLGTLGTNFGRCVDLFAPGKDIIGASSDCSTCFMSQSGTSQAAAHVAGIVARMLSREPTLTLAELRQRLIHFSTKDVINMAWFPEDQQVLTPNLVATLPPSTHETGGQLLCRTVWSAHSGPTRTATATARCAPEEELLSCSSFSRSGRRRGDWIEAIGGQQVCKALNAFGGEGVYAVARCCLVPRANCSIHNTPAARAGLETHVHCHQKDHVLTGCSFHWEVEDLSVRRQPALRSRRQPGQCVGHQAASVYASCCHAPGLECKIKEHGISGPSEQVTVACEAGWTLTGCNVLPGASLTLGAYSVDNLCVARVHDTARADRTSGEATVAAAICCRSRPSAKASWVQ

B1: 13H1: anti-PCSK9 ABP, light/heavy variable region SEQ ID NO 28/91 (antibody, listed as Homo sapiens, V domains shown)
VH: QVQLQQSGPGLVKPSQTLSLTCAISGDSVSSNSAAWNWIRQSPSRGLEWLGRTYYRSKWYKNYSVSVKSRITINPDTSKNQFSLQLNSVTPGDTAVYYCARGGPTAAFDYWGQGTLVTVSS
VL: LSALTQPASVSGSPGQSITISCTGTSSDVGNYNLVSWYQQYSGKAPKLMIYEVSKRPSGVSNRFSGSKSGNTASLTISGLQAEDEADYYCCSYAGSSTLVFGGGTKLTVL
With B1, in the experiment with human D374Y PCSK9, the neutralizing ability entry was “non-neutralizing”.

B2: 27B2: anti-PCSK9 ABP, light/heavy variable region SEQ ID NO 13/87 (antibody, listed as Homo sapiens, V domains shown)
VH: QVQLQESGPGLVKPSQTLSLTCTVSGGSISSGGYYWSWIRQHPGKGLEWIGYIYNSGSTYYNPSLKSRVTISVDTSKNQFSLKLSSVTAADTAVYYCAREDTAMVPYFDYWGQGTLVTVSS
VL: QSVLTQPPSVSGAPGQRVTISCTGSSSNIGAHYDVHWYQQVPGTAPKLLIYGNTYRPSGVPDRFSGSKSGTSASLAITGLQAEDEADYYCQSYDNSLSGVVFGGGTKLTVL
For the molecule B2, the neutralizing ability result with human D374Y PCSK9 is on record as “non-neutralizing”.

B3: 13B5: anti-PCSK9 ABP, light/heavy variable region SEQ ID NO 42/69 (antibody, listed as Homo sapiens, V domains shown)
VH: EVQLLESGGGLVQPGGSLRLSCAASGFTFSSYAMSWVRQAPGKGLEWVSTISGSGGRTYYADSVKGRFTISRDNSKNTLYLQMNSLRAEDTAVYYCAKEVGSPFDYWGQGTLVTVSS
VL: QSVLTQPPSVSAAPGQKVTISCSGSNSNIGNNYVSWYQQLPGTAPKLLIYDNNKRPSGIPDRFSGSNSGTSATLGITGLQTGDEADYYCGTWDSSLSAVVFGGGTKLTVL
Take B3: in the experiment with human D374Y PCSK9, the neutralizing ability result is listed as “non-neutralizing”.

B4: 16F12: anti-PCSK9 ABP, light/heavy variable region SEQ ID NO 35/79 (antibody, listed as Homo sapiens, V domains shown)
VH: QVHLVESGGGVVQPGRSLRLSCAASGFTFNSFGMHWVRQAPGKGLEWVALIWSDGSDEYYADSVKGRFTISRDNSKNTLYLQMNSLRAEDTAVYYCARAIAALYYYYGMDVWGQGTTVTVSS
VL: QSVLTQPPSVSAAPGQKVTISCSGSSSNIGNNFVSWYQQLPGTAPKLLIYDYNKRPSGIPDRFSGSKSGTSATLGITGLQTGDEADYYCGTWDSSLSAYVFGTGTRVTVL
In the case of B4, the Kd was found to be 470 pM with human PCSK9 [1] (hPCSK9, pH 7.4 (Table 7.1)); 29 pM with human PCSK9 [1] (pH 6 (pH 6.0 HBS-P buffer, n=1)); 470 pM with human PCSK9 [1] (pH 7.4 (Table 7.2)); 15 pM with human PCSK9 [2]. Moreover, the Koff with human PCSK9 [1] (pH 6) was 7.007e-05 s⁻¹; with human PCSK9 [1] (pH 7.4) it was 4.983e-05 s⁻¹. The values for the Kon with human PCSK9 [1] (pH 6) and with human PCSK9 [1] (pH 7.4) were 2.392e+06 M⁻¹ s⁻¹ and 106400 M⁻¹ s⁻¹, respectively. The “total serum cholesterol after a single dose” value with PCSK9 protein was “significant and substantial decreases in total serum cholesterol”.

B5: 3B6: anti-PCSK9 ABP, light/heavy variable region SEQ ID NO 46/60 (antibody, listed as Homo sapiens, V domains shown)
VH: QVQLVQSGAEVKKPGASVKVSCKASGYTFTSYGISWVRQAPGQGLEWMGWISTYNGNTNYAQKVQGRVTMTTDTSTSTAYMELRSLRSDDTAVYYCARGYTRDYWGQGTLVTVSS
VL: QPVLTQPLFASASLGASVTLTCTLSSGYSSYEVDWYQQRPGKGPRFVMRVDTGGIVGSKGEGIPDRFSVLGSGLNRYLTIKNIQEEDESDYHCGADHGSGTNFVVVFGGGTKLTVL
As for B5, the neutralizing ability result with human D374Y PCSK9 is listed as “weak neutralizers”.

B6: 25A7: anti-PCSK9 ABP, light/heavy variable region SEQ ID NO 15/58; neutralizing clone 25A7.3 (antibody, listed as Homo sapiens, V domains shown)
VH: QVQLVQSGAEVKKPGASVKVSCKASGYTFPSYGISWVRQAPGQGLEWMGWISAYNGNTNYAEKLQGRVTMTTDTSTSTAYMEVRSLRSDDTAVFYCARGYVMDVWGQGTTVTVSS
VL: QSALTQPASVSGSPGQSITISCTGTSSDVGRYNSVSWYQHHPGKAPKVMIYEVSNRPSGVSTRFSGSKSGNTASLTISGLQAEDEADYYCSSYTSSSVVFGGGTKLTVL
B6: the “blocking of PCSK9/LDLR in the functional assays” value with human D374Y PCSK9 (hybridoma clones) is “neutralizing”.
